Laboratory results reported in paper PMC4568301 (The Biochemical journal, 2012).

Tests used:
[1] = biological target: T1, NHERF2–VC (Na+/H+ exchanger regulatory factor 2, HA-tagged, fused to the C-terminal fragment of Venus), Q15599; experiment: split reporter; settings: remark: other sources report otherwise
T1 chain: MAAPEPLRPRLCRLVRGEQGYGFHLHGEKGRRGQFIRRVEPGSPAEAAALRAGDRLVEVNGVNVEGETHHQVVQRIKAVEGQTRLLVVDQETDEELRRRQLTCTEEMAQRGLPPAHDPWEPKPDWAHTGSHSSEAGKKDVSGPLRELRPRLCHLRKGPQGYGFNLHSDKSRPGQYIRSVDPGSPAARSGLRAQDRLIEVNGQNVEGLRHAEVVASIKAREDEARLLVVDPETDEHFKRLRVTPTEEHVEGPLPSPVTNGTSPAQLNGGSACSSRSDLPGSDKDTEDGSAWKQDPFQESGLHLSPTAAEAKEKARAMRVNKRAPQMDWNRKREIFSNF

[2] = biological target: AnxA2–HA (His6–AnxA2 fused to an HA tag, residues 1–339) (human, UniProt P07355 1-339); experiment: […]
AnxA2–HA (His6–AnxA2 fused to an HA tag, residues 1–339), sequence (P07355 whole entry, the tested form may be a part): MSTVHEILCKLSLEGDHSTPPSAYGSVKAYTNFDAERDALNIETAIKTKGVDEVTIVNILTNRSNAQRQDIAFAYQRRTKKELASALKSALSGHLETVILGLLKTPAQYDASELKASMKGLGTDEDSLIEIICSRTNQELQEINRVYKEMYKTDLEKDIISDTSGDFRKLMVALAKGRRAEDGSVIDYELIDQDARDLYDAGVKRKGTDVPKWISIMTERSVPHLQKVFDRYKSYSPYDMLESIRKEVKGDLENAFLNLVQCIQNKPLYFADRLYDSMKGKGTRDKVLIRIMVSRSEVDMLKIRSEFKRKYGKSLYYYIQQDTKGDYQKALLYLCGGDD

[3] = biological target: T2, Tir-EPEC (residues 1–550), His6-tagged (enteropathogenic Escherichia coli (EPEC), UniProt B7UM99 1-550); experiment: […]
T2 sequence: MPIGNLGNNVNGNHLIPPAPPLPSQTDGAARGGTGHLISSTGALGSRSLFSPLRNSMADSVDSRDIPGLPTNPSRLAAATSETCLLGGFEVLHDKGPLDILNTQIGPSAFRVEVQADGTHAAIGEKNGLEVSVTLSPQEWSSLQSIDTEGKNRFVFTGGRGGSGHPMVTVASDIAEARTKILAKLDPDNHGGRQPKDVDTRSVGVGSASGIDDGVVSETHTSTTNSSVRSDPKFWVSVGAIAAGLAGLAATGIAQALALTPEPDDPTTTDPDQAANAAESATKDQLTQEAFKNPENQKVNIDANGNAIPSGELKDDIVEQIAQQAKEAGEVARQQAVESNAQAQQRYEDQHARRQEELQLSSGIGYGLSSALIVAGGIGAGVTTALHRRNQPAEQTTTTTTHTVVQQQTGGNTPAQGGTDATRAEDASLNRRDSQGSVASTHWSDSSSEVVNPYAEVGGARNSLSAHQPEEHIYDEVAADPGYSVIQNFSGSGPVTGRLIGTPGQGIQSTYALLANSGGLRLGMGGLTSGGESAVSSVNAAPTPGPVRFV

[4] = biological target: T3, His6–Tir-EHEC (residues 1–558) (enterohaemorrhagic Escherichia coli …, UniProt Q7DB77 1-558); experiment: […]
T3 sequence: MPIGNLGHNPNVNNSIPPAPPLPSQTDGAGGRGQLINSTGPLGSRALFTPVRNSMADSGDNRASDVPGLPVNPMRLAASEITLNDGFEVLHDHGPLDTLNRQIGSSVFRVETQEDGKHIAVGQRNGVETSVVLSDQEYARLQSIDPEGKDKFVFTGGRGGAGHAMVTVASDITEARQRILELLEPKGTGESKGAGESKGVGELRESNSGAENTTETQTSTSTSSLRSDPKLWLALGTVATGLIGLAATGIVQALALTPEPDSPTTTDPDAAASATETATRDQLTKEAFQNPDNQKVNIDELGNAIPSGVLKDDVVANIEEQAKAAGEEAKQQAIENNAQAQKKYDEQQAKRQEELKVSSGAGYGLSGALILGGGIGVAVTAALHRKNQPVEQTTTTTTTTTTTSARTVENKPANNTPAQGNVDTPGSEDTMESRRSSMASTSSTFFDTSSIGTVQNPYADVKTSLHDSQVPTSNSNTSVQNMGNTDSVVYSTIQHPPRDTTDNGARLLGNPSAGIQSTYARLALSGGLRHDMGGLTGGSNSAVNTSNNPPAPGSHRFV

B1: NHERF2–VC (Na+/H+ exchanger regulatory factor 2, HA-tagged, fused to the C-terminal fragment of Venus), Q15599 1-337 (natural protein)
chain: T1 chain
BiFC signal, percent of Venus fluorescence (% of Venus fluorescence) [1]: 75

B2: TirN-EPEC (residues 1–240), His6-tagged (domain or fragment)
chain: MPIGNLGNNVNGNHLIPPAPPLPSQTDGAARGGTGHLISSTGALGSRSLFSPLRNSMADSVDSRDIPGLPTNPSRLAAATSETCLLGGFEVLHDKGPLDILNTQIGPSAFRVEVQADGTHAAIGEKNGLEVSVTLSPQEWSSLQSIDTEGKNRFVFTGGRGGSGHPMVTVASDIAEARTKILAKLDPDNHGGRQPKDVDTRSVGVGSASGIDDGVVSETHTSTTNSSVRSDPKFWVSVGA
binding result [2]: binds

B3: TirC-EHEC (residues 366–558), His6-tagged (domain or fragment)
chain: SGALILGGGIGVAVTAALHRKNQPVEQTTTTTTTTTTTSARTVENKPANNTPAQGNVDTPGSEDTMESRRSSMASTSSTFFDTSSIGTVQNPYADVKTSLHDSQVPTSNSNTSVQNMGNTDSVVYSTIQHPPRDTTDNGARLLGNPSAGIQSTYARLALSGGLRHDMGGLTGGSNSAVNTSNNPPAPGSHRFV
binding result [2]: binds

B4: TirN-EHEC (residues 1–237), His6-tagged (domain or fragment)
chain: MPIGNLGHNPNVNNSIPPAPPLPSQTDGAGGRGQLINSTGPLGSRALFTPVRNSMADSGDNRASDVPGLPVNPMRLAASEITLNDGFEVLHDHGPLDTLNRQIGSSVFRVETQEDGKHIAVGQRNGVETSVVLSDQEYARLQSIDPEGKDKFVFTGGRGGAGHAMVTVASDITEARQRILELLEPKGTGESKGAGESKGVGELRESNSGAENTTETQTSTSTSSLRSDPKLWLALGT
binding result [2]: binds

B5: AnxA2-C (C-terminal region of AnxA2, amino acids 191–339), His6-tagged (domain or fragment)
chain: IDQDARDLYDAGVKRKGTDVPKWISIMTERSVPHLQKVFDRYKSYSPYDMLESIRKEVKGDLENAFLNLVQCIQNKPLYFADRLYDSMKGKGTRDKVLIRIMVSRSEVDMLKIRSEFKRKYGKSLYYYIQQDTKGDYQKALLYLCGGDD
binding result [3]: binds | binding result [4]: binds

B6: TirC-EPEC (residues 369–550), His6-tagged (domain or fragment)
chain: SSALIVAGGIGAGVTTALHRRNQPAEQTTTTTTHTVVQQQTGGNTPAQGGTDATRAEDASLNRRDSQGSVASTHWSDSSSEVVNPYAEVGGARNSLSAHQPEEHIYDEVAADPGYSVIQNFSGSGPVTGRLIGTPGQGIQSTYALLANSGGLRLGMGGLTSGGESAVSSVNAAPTPGPVRFV
binding result [2]: binds
